Experimental data taken from article doi:10.1101/2025.11.11.687647 (bioRxiv, 2025).

Molecular target: the molecule itself
Experiment: SEC

B1: Mycobacterium tuberculosis pyruvate carboxylase (MtPC), full-length (enzyme)
chain: MFSKVLVANRGEIAIRAFRAAYELGVGTVAVYPYEDRNSQHRLKADESYQIGDIGHPVHAYLSVDEIVATARRAGADAIYPGYGFLSENPDLAAACAAAGISFVGPSAEVLELAGNKSRAIAAAREAGLPVLMSSAPSASVDELLSVAAGMPFPLFVKAVAGGGGRGMRRVGDIAALPEAIEAASREAESAFGDPTVYLEQAVINPRHIEVQILADNLGDVIHLYERDCSVQRRHQKVIELAPAPHLDAELRYKMCVDAVAFARHIGYSCAGTVEFLLDERGEYVFIEMNPRVQVEHTVTEEITDVDLVASQLRIAAGETLEQLGLRQEDIAPHGAALQCRITTEDPANGFRPDTGRISALRTAGGAGVRLDGSTNLGAEISPYFDSMLVKLTCRGRDLPTAVSRARRAIAEFRIRGVSTNIPFLQAVLDDPDFRAGRVTTSFIDERPQLLTARASADRGTKILNFLADVTVNNPYGSRPSTIYPDDKLPDLDLRAAPPAGSKQRLVKLGPEGFARWLRESAAVGVTDTTFRDAHQSLLATRVRTSGLSRVAPYLARTMPQLLSVECWGGATYDVALRFLKEDPWERLATLRAAMPNICLQMLLRGRNTVGYTPYPEIVTSAFVQEATATGIDIFRIFDALNNIESMRPAIDAVRETGSAIAEVAMCYTGDLTDPGEQLYTLDYYLKLAEQIVDAGAHVLAIKDMAGLLRPPAAQRLVSALRSRFDLPVHLHTHDTPGGQLASYVAAWHAGADAVDGAAAPLAGTTSQPALSSIVAAAAHTEYDTGLSLSAVCALEPYWEALRKVYAPFESGLPGPTGRVYHHEIPGGQLSNLRQQAIALGLGDRFEEIEEAYAGADRVLGRLVKVTPTSKVVGDLALALVGAGVSADEFASDPARFGIPESVLGFLRGELGDPPGGWPEPLRTAALAGRGAARPTAQLAADDEIALSSVGAKRQATLNRLLFPSPTKEFNEHREAYGDTSQLSANQFFYGLRQGEEHRVKLERGVELLIGLEAISEPDERGMRTVMCILNGQLRPVLVRDRSIASAVPAAEKADRGNPGHIAAPFAGVVTVGVCVGERVGAGQTIATIEAMKMEAPITAPVAGTVERVAVSDTAQVEGGDLLVVVS
With B1 as the protein, how does the “stoichiometry N” value read?
The value was 4.
